B1: GT 71C2: Arabidopsis thaliana glycosyltransferase, SEQ ID NO: 8 (nucleotide), 109 (amino acid) (protein, listed as Arabidopsis thaliana)
chain: MAKQQEAELIFIPFPIPGHILATIELAKRLISHQPSRIHTITILHWSLPFLPQSDTIAFLKSLIETESRIRLITLPDVQNPPPMELFVKASESYILEYVKKMVPLVRNALSTLLSSRDESDSVHVAGLVLDFFCVPLIDVGNEFNLPSYIFLTCSASFLGMMKYLLERNRETKPELNRSSDEETISVPGFVNSVPVKVLPPGLFTTESYEAWVEMAERFPEAKGILVNSFESLERNAFDYFDRRPDNYPPVYPIGPILCSNDRPNLDLSERDRILKWLDDQPESSVVFLCFGSLKSLAASQIKEIAQALELVGIRFLWSIRTDPKEYASPNEILPDGFMNRVMGLGLVCGWAPQVEILAHKAIGGFVSHCGWNSILESLRFGVPIATWPMYAEQQLNAFTIVKELGLALEMRLDYVSEYGEIVKADEIAGAVRSLMDGEDVPRRKLKEIAEAGKEAVMDGGSSFVAVKRFIDGL
B2: GT 71 D1: Arabidopsis thaliana glycosyltransferase, SEQ ID NO: 12 (nucleotide), 111 (amino acid) (protein, listed as Arabidopsis thaliana)
chain: MRNVELIFIPTPTVGHLVPFLEFARRLIEQDDRIRITILLMKLQGQSHLDTYVKSIASSQPFVRFIDVPELEEKPTLGSTQSVEAYVYDVIERNIPLVRNIVMDILTSLALDGVKVKGLVVDFFCLPMIDVAKDISLPFYVFLTTNSGFLAMMQYLADRHSRDTSVFVRNSEEMLSIPGFVNPVPANVLPSALFVEDGYDAYVKLAILFTKANGILVNSSFDIEPYSVNHFLQEQNYPSVYAVGPIFDLKAQPHPEQDLTRRDELMKWLDDQPEASVVFLCFGSMARLRGSLVKEIAHGLELCQYRFLWSLRKEEVTKDDLPEGFLDRVDGRGMICGWSPQVEILAHKAVGGFVSHCGWNSIVESLWFGVPIVTWPMYAEQQLNAFLMVKELKLAVELKLDYRVHSDEIVNANEIETAIRYVMDTDNNVVRKRVMDISQMIQRATKNGGSSFAAIEKFIYDVIGIKP
B3: GT 88A1: Arabidopsis thaliana glycosyltransferase, SEQ ID NO: 97 (nucleotide), 133 (amino acid) (protein, listed as Arabidopsis thaliana)
chain: MGEEAIVLYPAPPIGHLVSMVELGKTILSKNPSLSIHIILVPPPYQPESTATYISSVSSSFPSITFHHLPAVTPYSSSSTSRHHHESLLLEILCFSNPSVHRTLFSLSRNFNVRAMIIDFFCTAVLDITADFTFPVYFFYTSGAACLAFSFYLPTIDETTPGKNLKDIPTVHIPGVPPMKGSDMPKAVLERDDEVYDVFIMFGKQLSKSSGIIINTFDALENRAIKAITEELCFRNIYPIGPLIVNGRIEDRNDNKAVSCLNWLDSQPEKSVVFLCFGSLGLFSKEQVIEIAVGLEKSGQRFLWVVRNPPELEKTELDLKSLLPEGFLSRTEDKGMVVKSWAPQVPVLNHKAVGGFVTHCGWNSILEAVCAGVPMVAWPLYAEQRFNRVMIVDEIKIAISMNESETGFVSSTEVEKRVQEIIGECPVRERTMAMKNAAELALTETGSSHTALTTLLQSWSPK
B4: GT 71C4: Arabidopsis thaliana glycosyltransferase, SEQ ID NO: 10 (nucleotide), 110 (amino acid) (protein, listed as Arabidopsis thaliana)
chain: MVKETELIFIPVPSTGHILVHIEFAKRLINLDHRIHTITILNLSSPSSPHASVFARSLIASQPKIRLHDLPPIQDPPPFDLYQRAPEAYIVKLIKKNTPLIKDAVSSIVASRRGGSDSVQVAGLVLDLFCNSLVKDVGNELNLPSYIYLTCNARYLGMMKYIPDRHRKIASEFDLSSGDEELPVPGFINAIPTKFMPPGLFNKEAYEAYVELAPRFADAKGILVNSFTELEPHPFDYFSHLEKFPPVYPVGPILSLKDRASPNEEAVDRDQIVGWLDDQPESSVVFLCFGSRGSVDEPQVKEIARALELVGCRFLWSIRTSGDVETNPNDVLPEGFMGRVAGRGLVCGWAPQVEVLAHKAIGGFVSHCGWNSTLESLWFGVPVATWPMYAEQQLNAFTLVKELGLAVDLRMDYVSSRGGLVTCDEIARAVRSLMDGGDEKRKKVKEMADAARKALMDGGSSSLATARFIAELFEDGSSC
B5: GT 74B1: Arabidopsis thaliana glycosyltransferase, SEQ ID NO: 35 (nucleotide), 124 (amino acid) (protein, listed as Arabidopsis thaliana)
chain: MAETTPKVKGHVVILPYPVQGHLNPMVQFAKRLVSKNVKVTIATTTYTASSITTPSLSVEPISDGFDFIPIGIPGFSVDTYSESFKLNGSETLTLLIEKFKSTDSPIDCLIYDSFLPWGLEVARSMELSAASFFTNNLTVCSVLRKFSNGDFPLPADPNSAPFRIRGLPSLSYDELPSFVGRHWLTHPEHGRVLLNQFPNHENADWLFVNGFEGLEETQDCENGESDAMKATLIGPMIPSAYLDDRMEDDKDYGASLLKPISKECMEWLETKQAQSVAFVSFGSFGILFEKQLAEVAIALQESDLNFLWVIKEAHIAKLPEGFVESTKDRALLVSWCNQLEVLAHESIGCFLTHCGWNSTLEGLSLGVPMVGVPQWSDQMNDAKFVEEVWKVGYRAKEEAGEVIVKSEELVRCLKGVMEGESSVKIRESSKKWKDLAVKAMSEGGSSDRSINEFIESLGK
B6: GT 72D1: Arabidopsis thaliana glycosyltransferase, SEQ ID NO: 18 (nucleotide), 113 (amino acid) (protein, listed as Arabidopsis thaliana)
chain: MDQPHALLVASPGLGHLIPILELGNRLSSVLNIHVTILAVTSGSSSPTETEAIHAAAARTICQITEIPSVDVDNLVEPDATIFTKMVVKMRAMKPAVRDAVKLMKRKPTVMIVDFLGTELMSVADDVGMTAKYVYVPTHAWFLAVMVYLPVLDTVVEGEYVDIKEPLKIPGCKPVGPKELMETMLDRSGQQYKECVRAGLEVPMSDGVLVNTWEELQGNTLAALREDEELSRVMKVPVYPIGPIVRTNQHVDKPNSIFEWLDEQRERSVVFVCLGSGGTLTFEQTVELALGLELSGQRFVWVLRRPASYLGAISSDDEQVSASLPEGFLDRTRGVGIVVTQWAPQVEILSHRSIGGFLSHCGWSSALESLTKGVPIIAWPLYAEQWMNATLLTEEIGVAVRTSELPSERVIGREEVASLVRKIMAEEDEEGQKIRAKAEEVRVSSERAWSKDGSSYNSLFEWAKRCYLVP

Tests used:
[1] = Removal of aglycones through adsorption by PVPP, analysed by RP-HPLC; type: physicochemical; conditions: ratio of compounds removed by PVPP over that in the untreated samples
Procedure: FIG. 7: Removal of different aglycones through adsorbtion by PVPP. The removal of a) trans-resveratrol (100%), b) esculetin (70%), c) daidzein (81%), and d) scopoletin (92%) by PVPP was analyzed by RP-HPLC. The efficiency was defined as the ratio of compounds removed by PVPP over that in the untreated samples;
(§1) Reverse-phase HPLC (RP-HPLC): RP-HPLC (Agilent 1100 system with Photodiode Array Detector, Agilent, U.K.) analysis was carried out using a Columbus 5-μ C18 column (150×3.20 mm, Phenomenex, U.K.). Glucosides were separated from their respective aglycones using a linear gradient of acetonitrile/0.1% formic acid (v/v) in H2O: 10-45% (trans-resveratrol/glucosides), 10-50% (daidzein/glucosides) at 0.5 mL/min over 20 min and monitored at 280 nm and 250 nm. Separation of scopoletin/scopolin and esculetin/esculin was carried out using the conditions described previously.^[11]
(§2) Stage 3, detection: 50 μl of the reaction mix were transferred to a 96-well filtration plate (Abgene, U.K.), mixed with an equal volume of PVPP aqueous suspension (25 g/L), shaken for 1 h at 25° C. before centrifugation (1000 g, 5 min). To each filtrate, 50 mM 2-morpholino-ethanesulfonic acid buffer (MES) (pH 7.0), ABTS™ (0.1 mM), peroxidase (2 U) and glucose oxidase (2 U) were added to a final volume of 125 μl. The formation of the green dye was monitored at 405 nm at 30 min using a plate reader (Bio-Tec Instruments Inc., U.S.A).

[2] = Whole-cell biocatalysis screen of GT library against the aglycone trans-resveratrol (RP-HPLC of glucosides); type: cell-based, E. coli; conditions: 500 µM aglycone, 44 h, 25° C.
Description: FIG. 4: Screening of a GT-library against the aglycone trans-resveratrol. a) The readings at A405 nm for D-glucose detection are presented in a colored code format. b) Examples of RP HPLC trace of active and non active GTs in whole cell biocatalysis are illustrated. c) The regioselectivity of the active GTs towards trans-resveratrol, defined by the percentage of a regiospecific glucoside in the total amount of monoglucosides formed;
as §1
The cDNA library of 96 Arabidopsis thaliana GTs was subcloned into the multiple cloning site of the glutathione-S-transferase (GST) gene fusion vector pGEX-2T (Amersham Biosciences, U.K.) as described previously^[10] and transformed into the strain E. coli BL21 (DE3) for use in the screening method.
Stage 1, biotransformation: single colonies of the GT library grown on LB-agar plates overnight were transferred to individual wells in a 96-well bacterial culture plate containing 400 μl 2×YT medium (16 g/L bacto tryptone, 10 g/L yeast extract, 5 g/L NaCl) and 50 μg/mL ampicillin. The plate was covered with an adhesive plate seal (Abgene, U.K.) and incubated at 37° C. (250 rpm). The bacterial growth was monitored at 595 nm by a plate reader. After 4 h, the cultures had reached exponential phase. The plate was centrifuged (4000 g, 10 min), the supernatants discarded and cell pellets were resuspended in isopropyl-D-thiogalactopyranoside (0.1 mM), 2-(N-morpholino)ethanesulfonic acid (50 mM, pH 7.0), ampicillin (50 μg/mL), L-arabinose (10 g/L) and 500 µM of aglycone to a total whole-cell reaction volume of 400 μl/well. The 96-well plate was closed with a gas permeable adhesive plate seal, wrapped in alu foil for light protection and incubated at 25° C. (250 rpm). After 44 h the cultures were centrifuged (4000 g, 15 min) and the supernatants analyzed.
Stage 2, cleavage: supernatants (100 μl) were transferred to a microtiter plate, 1 μl of β-glucosidase (1 U) was added and the plate incubated for 90 min at 37° C.
as §2
The utility of the screening method and regioselective biocatalysis by the GTs are illustrated in FIGS. 2 and 3. Thirteen GTs recognized daidzein and twenty-five GTs were identified that glycosylated trans-resveratrol. […] The mono- and di-glucosides of daidzein (4-6) and trans-resveratrol (8-10), eluting earlier than the two aglycones under the RP-HPLC conditions used (FIGS. 2b and 3b), were identified using external standards when available, or by electrospray liquid chromatography-mass spectrometry (LC-MS). ^1H-NMR analysis was used to confirm the structure of the monoglucosides (Table 1, SEQ ID NO: 1-107). […] Similarly, regioselective glycosylation of trans-resveratrol was observed. […] Only trace levels of a diglucoside were observed under the reaction conditions used.

Row | Molecule | removal by PVPP (efficiency) [1] [%] | regioselective glycosylation of trans-resveratrol (position) [2]
1 | COc1cc2ccc(=O)oc2cc1O [scopoletin] | 92 | –
2 | O=c1ccc2cc(O)c(O)cc2o1 [esculetin] | 70 | –
3 | Oc1ccc(/C=C/c2cc(O)cc(O)c2)cc1 [trans-resveratrol] | 100 | –
4 | O=c1c(-c2ccc(O)cc2)coc2cc(O)ccc12 [daidzein] | 81 | –
5 | B1 | – | specific for the 3-OH position
6 | B2 | – | specific for the 3-OH position
7 | B3 | – | specific for the 3-OH position
8 | B4 | – | specific for the 3-OH position
9 | B5 | – | specific for the 4′-OH position
10 | B6 | – | specific for the 3-OH position

Source: patent publication US20090280543A1, “REGIOSELECTIVE GLYCOSYLATION” (THE UNIVERSITY OF YORK, priority 2005, published 2009)
